According to patent US20160237162A1 (AstraZeneca / MedImmune, published 2016):
Changes are numbered by the printed parent chain. Names may count otherwise.

How the values were obtained:
[1] = target: T1, Recombinant mouse HER3(ECD)/Fc chimera (mouse, UniProt Q61526 20-641); assay: ELISA with purified IgG on murine HER3
T1 construct: Generated in house; also called murine HER3 (as a HER3-Fc fusion); murine HER3; not shown: Fc part and any linker or tag of the in-house chimera

[2] = target: T2, human HER3 on human cancer cells (human, UniProt P21860 20-1342); assay: cell-based or functional assay
[3] = target: T2, human HER3 on human cancer cells; assay: cell-based or functional assay; remark: listed apart in the source
[4] = target: T2, human HER3 on human cancer cells; assay: cell-based or functional assay; remark: listed apart in the source
[5] = target: T3, Recombinant human HER3(ECD)/Fc chimera (human, UniProt P21860 20-643, biotinylated in the capture ELISA of section 1.9); assay: HRG-HER3 ELISA: plate coated with HRG, antibody dilutions premixed with 5 ug/ml recombinant HER3, bound HER3 detected by anti-His HRP; blocked ligand HRG
T3 construct: extracellular domain; Bought (R&D Systems); The ELISA sections say only 'recombinant HER3 protein' / 'biotinylated HER3 protein' / 'recombinant HER3'; also called recombinant HER3 protein; biotinylated HER3 protein; not shown: Fc, linker peptide and C-terminal 6x Histidine-tag

[6] = target: T3, Recombinant human HER3(ECD)/Fc chimera; assay: Fab capture ELISA with biotinylated HER3
Experimental: (§1) Briefly, this capture ELISA involved coating individual wells of a 96-well Maxisorp Immunoplate with approximately 50 ng of a sheep anti-human Fd antibody (Biodesign International, ME) in a carbonate buffer at pH 8.5 overnight at 4° C. The next day, the plate was blocked with 3% BSA in PBS buffer for 1 h at room temperature. Fab supernatant was then added to the plate and incubated at room temperature for 1 hr. After washing, 0.1 μg of biotinylated HER3 protein was added to the well and the mixture was incubated for 1.5 h at room temperature. This was followed by incubation with neutravidin-horseradish peroxydase (HRP) conjugate (Pierce, Ill.) for approximately 40 min at room temperature. HRP activity was detected with tetra-methyl-benzidine (TMB) substrate and the reaction quenched with 0.2 M H₂SO₄. Plates were read at 450 nm.
(§2) The Fab concentration was determined by comparing the ELISA signals with the signals generated by the reference Fab.

[7] = target: T3, Recombinant human HER3(ECD)/Fc chimera; assay: Fab capture ELISA with biotinylated HER3, against GL-P6
Experimental: as §1, §2

[8] = target: T2, human HER3 on human cancer cells; assay: cell-based or functional assay; remark: listed apart in the source
[9] = target: T2, human HER3 on human cancer cells; assay: cell-based or functional assay; remark: listed apart in the source
[10] = target: T2, human HER3 on human cancer cells; assay: cell-based or functional assay; remark: listed apart in the source
[11] = target: T2, human HER3 on human cancer cells; assay: cell-based or functional assay; remark: listed apart in the source
[12] = target: T2, human HER3 on human cancer cells; assay: cell-based or functional assay; remark: listed apart in the source
[13] = target: T2, human HER3 on human cancer cells; assay: cell-based or functional assay; remark: listed apart in the source
[14] = target: T2, human HER3 on human cancer cells; assay: cell-based or functional assay; remark: listed apart in the source
[15] = target: T2, human HER3 on human cancer cells; assay: cell-based or functional assay; remark: listed apart in the source

B1: 1A4 antibody, human IgG1 (antibody, V domains shown)
VH: EVQLLESGGGLVQPGGSLRLSCAASGFTFSYYYMQWVRQAPGKGLEWVSYIGSSGGVTNYADSVKGRFTISRDNSKNTLYLQMNSLRAEDTAVYYCARVGLGDAFDIWGQGTMVTVSS
VL: QSVLTQPPSASGTPGQRVTISCSGSSSNIGLNYVSWYQQLPGTAPKLLISRNNQRPSGVPDRFSGSKSGTSASLAISGLRSEDEADYYCAAWDDSPPGEAFGGGTKLTVL
notes: IgG1, lambda
binding result [1]: binds | BT474 6-day growth % Max inhibition [2]: 54.5% | BT474 clonogenic assay % Max inhibition [2]: 81.3% | BT474 pAKT assay % Max inhibition [2]: 62% | T47D HRG inducible pHer3 % Max inhibition [2]: 84%

B2: 2C2-YTE monoclonal antibody (antibody, human IgG1, V domains shown)
VH: B1 VH
VL: B1 VL with S26L
IC50 (read off the curve); suppression of pAKT (Meso-Scale Discovery assay), BT-474 cells [3]: ~0.003 ug/ml | IC50 (read off the curve); suppression of pHER3 (pHER3 ELISA), BT-474 cells [4]: ~0.003 ug/ml

B3: Clone 16 antibody (CL16), human IgG1 (antibody, V domains shown)
VH: B1 VH
VL: B1 VL with S2Y, V3E, I20M, P96L, P97S, A100V
notes: also called parental IgG; Clone 16-PA
IC50 (read off the curve) [5]: ~0.6 µg/mL | BT474 6-day growth % Max inhibition [2]: 46% | BT474 clonogenic assay % Max inhibition [2]: 79.8% | BT474 pAKT assay % Max inhibition [2]: 64% | T47D HRG inducible pHer3 % Max inhibition [2]: 75%

B4: clone 6E3 Fab (Fab, V domains shown)
VH: B1 VH
VL: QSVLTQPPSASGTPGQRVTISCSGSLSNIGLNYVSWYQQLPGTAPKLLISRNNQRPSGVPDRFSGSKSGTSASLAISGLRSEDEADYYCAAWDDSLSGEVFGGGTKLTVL
notes: Fab, single VL mutant (S27L) of GL-P6
binding result [6]: binds

B5: clone 2D1 Fab (Fab, V domains shown)
VH: B1 VH
VL: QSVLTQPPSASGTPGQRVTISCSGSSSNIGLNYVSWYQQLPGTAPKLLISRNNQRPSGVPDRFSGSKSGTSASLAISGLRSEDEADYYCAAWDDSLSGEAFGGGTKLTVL
notes: Fab, single VL mutant (V97A) of GL-P6
binding result [6]: binds

B6: clone 8A3 Fab (Fab, V domains shown)
VH: B1 VH
VL: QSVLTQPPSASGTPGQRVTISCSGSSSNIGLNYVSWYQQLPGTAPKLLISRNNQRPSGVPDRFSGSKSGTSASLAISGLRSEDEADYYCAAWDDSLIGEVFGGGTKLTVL
notes: Fab, single VL mutant (S96aI) of GL-P6
fold binding improvement [7]: 3.5 fold

B7: clone 4C4 Fab (Fab, V domains shown)
VH: B1 VH
VL: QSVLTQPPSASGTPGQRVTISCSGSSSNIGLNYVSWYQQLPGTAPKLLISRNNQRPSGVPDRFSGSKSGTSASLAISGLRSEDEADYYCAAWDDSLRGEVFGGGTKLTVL
notes: Fab, single VL mutant (S96aR) of GL-P6
fold binding improvement [7]: 8.6 fold

B8: clone 4H6 Fab (Fab, V domains shown)
VH: B1 VH
VL: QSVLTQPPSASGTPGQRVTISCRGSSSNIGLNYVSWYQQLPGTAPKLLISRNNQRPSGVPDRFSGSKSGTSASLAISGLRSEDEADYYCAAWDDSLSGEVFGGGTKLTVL
notes: Fab, single VL mutant (S24R) of GL-P6
binding result [6]: binds

B9: 3E1 antibody, human IgG1 (antibody, V domains shown)
VH: B1 VH
VL: B1 VL with S23R
notes: IgG1, lambda
binding result [1]: binds | BT474 6-day growth % Max inhibition [2]: 48.1% | BT474 clonogenic assay % Max inhibition [2]: 79.2% | BT474 pAKT assay % Max inhibition [2]: 66% | T47D HRG inducible pHer3 % Max inhibition [2]: 86%

B10: P2B11 antibody, human IgG1 (antibody, V domains shown)
VH: B1 VH
VL: not shown
BT474 6-day growth % Max inhibition [2]: 47.5% | BT474 clonogenic assay % Max inhibition [2]: 87.1% | BT474 pAKT assay % Max inhibition [2]: 62% | T47D HRG inducible pHer3 % Max inhibition [2]: 85%

B11: 2C2 monoclonal antibody, human IgG1 (antibody, V domains shown)
VH: B1 VH
VL: B1 VL with S26L
IC50; suppression of pAKT (Meso-Scale Discovery assay), Kato III cells [8]: 0.9 ng/ml | HRG-induced pHER3 ELISA in MCF-7 cells; potency by IC50 against MM and AMG [9]: ~5 fold | IC50; suppression of pAKT (Meso-Scale Discovery assay), BT-474 cells [3]: 0.003 ug/ml | IC50; suppression of pHER3 (pHER3 ELISA), BT-474 cells [4]: 0.004 ug/ml | IC50; suppression of HRG-induced pHER3 (pHER3 ELISA), MCF-7 cells [10]: 8.4 ng/ml | IC50; suppression of pHER3 (pHER3 ELISA), HCC827 cells [11]: 2 ng/ml | IC50; suppression of pHER3 (pHER3 ELISA), Kato III cells [12]: 0.8 ng/ml | IC50; suppression of pAKT (Meso-Scale Discovery assay), MKN45 cells [13]: 2.9 ng/ml | IC50; growth suppression (CellTiter-Glo, 6 days), HMCB melanoma cells [14]: 0.027 µg/mL | IC50; suppression of pHER3 (pHER3 ELISA), EGFR-TKI (gefitinib)-resistant HCC827 cells [15]: 3.5 ng/ml | BT474 clonogenic assay % Max inhibition [2]: 87.2% | BT474 pAKT assay % Max inhibition [2]: 61% | T47D HRG inducible pHer3 % Max inhibition [2]: 85%

B12: 2F10 antibody, human IgG1 (antibody, V domains shown)
VH: B1 VH
VL: B1 VL with P97S
BT474 6-day growth % Max inhibition [2]: 49% | BT474 clonogenic assay % Max inhibition [2]: 80.4% | BT474 pAKT assay % Max inhibition [2]: 62% | T47D HRG inducible pHer3 % Max inhibition [2]: 86%
